This is an account of results in patent publication US20240327497A1.

Where a chain is given by its changes, count along the chain named. Names and notes keep the numbering of the source. Values joined by “and” are separate entries in the source; they are usually repeats but may differ in a detail not shown here. Equal entries are not always repeated.

In assay [1] the target is canine FcRn (FcRn large subunit with canine beta-2-microglobulin) (canine). The assay is described as follows: SPR pH 5.5, SASA-Fc captured on BSA, FcRn 200 nM.
Assay [2] shares this target. The assay is described as follows: SPR pH 5.5, SASA-Fc captured on BSA, FcRn 400 nM.
The target is the same in assay [3]. The assay is described as follows: SPR pH 5.5, SASA-Fc captured on BSA, FcRn 200 nM. This is another data set of the same source.
For assay [4] the target is unchanged. Description: SPR pH 5.5, SASA-Fc captured on BSA, FcRn 200 nM. This is another data set of the same source.
For assay [5] the target is unchanged. The assay is described as follows: SPR pH 5.5, SASA-Fc captured on BSA, FcRn 200 nM. This is another data set of the same source.
For assay [6] the target is unchanged. The assay is described as follows: SPR pH 5.5, SASA-Fc captured on BSA, FcRn 200 nM. The source holds these as a separate data set.
For assay [7] the target is unchanged. Description: SPR pH 5.5, SASA-Fc captured on BSA, FcRn 400 nM; average of 12 wild-type runs.
Assay [8] has the same target. Description: SPR pH 6.0, SASA-Fc captured on BSA, FcRn 200 nM.
Assay [9] has the same target. The assay is described as follows: SPR pH 5.5, SASA-Fc captured on BSA, FcRn 200 nM. The source holds these as a separate data set.
For assay [10] the target is unchanged. Description: SPR pH 5.5, SASA-Fc captured on BSA, FcRn 200 nM. The source holds these as a separate data set.
For assay [11] the target is unchanged. Description: SPR pH 5.5, SASA-Fc captured on BSA, FcRn 200 nM. The source holds these as a separate data set.
Assay [12] has the same target. Description: SPR pH 6.0, SASA-Fc captured on BSA, FcRn 100-800 nM.
The target is the same in assay [13]. The assay is described as follows: SPR pH 5.5, SASA-Fc captured on BSA, FcRn 200 nM. This is another data set of the same source.
The target is the same in assay [14]. The assay is described as follows: SPR pH 5.5, SASA-Fc captured on BSA, FcRn 100-800 nM.
Assay [15] has the same target. Description: SPR pH 6.0, IgG coupled to CM5, FcRn 200-3200 nM.
Assay [16] shares this target. Description: SPR pH 5.9, IgG coupled to C1 chip, steady state fit.

B1: canine IgGB Fc (CH2-CH3) E380A with N-terminal SASA tag (Fc fusion, part only; not given: SASA tag, not shown: another chain or arm of the molecule; small tags and cut ends)
Fc: APEMLGGPSVFIFPPKPKDTLLIARTPEVTCVVVDLDPEDPEVQISWFVDGKQMQTAKTQPREEQFNGTYRVVSVLPIGHQDWLKGKQFTCKVNNKALPSPIERTISKARGQAHQPSVYVLPPSREELSKNTVSLTCLIKDFFPPDIDVAWQSNGQQEPESKYRTTPPQLDEDGSYFLYSKLSVDKSRWQRGDTFICAVMHEALHNHYTQESLSHSPGK
Broadly, the Kd is the concentration at which binding is half-saturated. As usually defined, the koff is the rate constant with which the complex falls apart. The low end stands for slow dissociation, the high end for fast dissociation. A word on the kon: it is the rate constant with which the complex forms. Read a low kon as slow association. Consider B1, for which, in assay [1], the Kd was 1320 nM and 1570 nM; the koff was 0.223 s⁻¹ and 0.239 s⁻¹; the kon is 168000 M⁻¹ s⁻¹ and 152000 M⁻¹ s⁻¹. Also, in [2], the dissociation constant Kd was 618 nM and 747 nM; the WT KD Avg/Variant KD is 0.76 and 0.92; the koff was 0.369 s⁻¹ and 0.18 s⁻¹; the kon was 598000 M⁻¹ s⁻¹ and 241000 M⁻¹ s⁻¹.

B2: wild-type canine IgGB Fc (CH2-CH3) with N-terminal SASA tag (Fc fusion, part only; not given: SASA tag, not shown: another chain or arm of the molecule; small tags and cut ends)
Fc: B1 Fc with A150E
Regarding B2, the Kd in [3] is 639 nM and 692 nM; in assay [4], 1710 nM and 2660 nM; in assay [1], 1560 nM and 754 nM; in assay [5], 955 nM and 1310 nM; in assay [6], 884 nM and 862 nM; in assay [7] it was 566 nM. The Kd in assay [8] was 939 nM and 999 nM; in [9], 502 nM and 784 nM; in assay [10], 1010 nM and 673 nM; in assay [11], 8.99 µM and 3.11 µM; in [12] it was 1820 nM; in [13], 2050 nM and 2990 nM. Also, the Kd in assay [14] was determined as 3.15 µM. The koff is 0.17 s⁻¹ and 0.171 s⁻¹ in [3]; 0.288 s⁻¹ and 0.326 s⁻¹ in assay [4]; 0.179 s⁻¹ and 0.182 s⁻¹ in assay [1]; 0.181 s⁻¹ and 0.209 s⁻¹ in [5]; 0.21 s⁻¹ and 0.218 s⁻¹ in assay [6]; 0.14 s⁻¹ and 0.144 s⁻¹ in assay [8]. Further, the koff in assay [9] was 0.169 s⁻¹ and 0.207 s⁻¹; in [10] it was 0.195 s⁻¹ and 0.297 s⁻¹; in [11], 0.347 s⁻¹ and 0.354 s⁻¹; in assay [12] it was 0.417 s⁻¹; in assay [13], 0.31 s⁻¹ and 0.315 s⁻¹; in assay [14], 0.527 s⁻¹. Further, the kon in [3] is 267000 M⁻¹ s⁻¹ and 247000 M⁻¹ s⁻¹; in assay [4], 168000 M⁻¹ s⁻¹ and 123000 M⁻¹ s⁻¹; in assay [1], 115000 M⁻¹ s⁻¹ and 242000 M⁻¹ s⁻¹; in assay [5], 190000 M⁻¹ s⁻¹ and 159000 M⁻¹ s⁻¹; in [6], 237000 M⁻¹ s⁻¹ and 253000 M⁻¹ s⁻¹; in assay [8], 149000 M⁻¹ s⁻¹ and 144000 M⁻¹ s⁻¹. For the same molecule, the kon in [9] is 336000 M⁻¹ s⁻¹ and 264000 M⁻¹ s⁻¹; in [10] it was 194000 M⁻¹ s⁻¹ and 442000 M⁻¹ s⁻¹; in assay [11], 38700 M⁻¹ s⁻¹ and 114000 M⁻¹ s⁻¹; in assay [12], 230000 M⁻¹ s⁻¹; in assay [13] it was 151000 M⁻¹ s⁻¹ and 105000 M⁻¹ s⁻¹; in [14], 168000 M⁻¹ s⁻¹.

B3: anti-NGF canine IgGB antibody, Fc variant A426H + N434R (antibody, part only; not given: Anti-NGF variable domains, not shown: another chain or arm of the molecule; small tags and cut ends)
Fc: B1 Fc with A150E, A198H, N206R
In [15], B3 returned a Kd of 2480 nM, an off-rate (koff) of 0.264 s⁻¹ and a kon of 107000 M⁻¹ s⁻¹.

B4: anti-NGF canine IgGB antibody with wild-type IgGB Fc (antibody, part only; not given: Anti-NGF variable domains, not shown: another chain or arm of the molecule; small tags and cut ends)
Fc: B1 Fc with A150E
B4 came in with a dissociation constant Kd in [16] of 951 nM. In [15], the dissociation constant Kd turned out to be 3370 nM, the koff amounted to 0.385 s⁻¹ and the kon worked out at 114000 M⁻¹ s⁻¹.

B5: canine IgGB Fc (CH2-CH3) A254T with N-terminal SASA tag (Fc fusion, part only; not given: SASA tag, not shown: another chain or arm of the molecule; small tags and cut ends)
Fc: B1 Fc with A24T, A150E
With B5, in assay [13], the Kd is 2290 nM and 1340 nM; the koff was 0.375 s⁻¹ and 0.433 s⁻¹; the kon was 163000 M⁻¹ s⁻¹ and 323000 M⁻¹ s⁻¹.

B6: canine IgGB Fc (CH2-CH3) D378V with N-terminal SASA tag (Fc fusion, part only; not given: SASA tag, not shown: another chain or arm of the molecule; small tags and cut ends)
Fc: B1 Fc with D148V, A150E
In the case of B6, in assay [9], the Kd is 693 nM and 873 nM; the koff is 0.159 s⁻¹ and 0.16 s⁻¹; the kon was 229000 M⁻¹ s⁻¹ and 184000 M⁻¹ s⁻¹.

B7: canine IgGB Fc (CH2-CH3) Q311V with N-terminal SASA tag (Fc fusion, part only; not given: SASA tag, not shown: another chain or arm of the molecule; small tags and cut ends)
Fc: B1 Fc with Q81V, A150E
As to B7, in assay [3], the Kd is 372 nM and 439 nM; the off-rate constant (koff) is 0.566 s⁻¹ and 0.696 s⁻¹; the kon was 1.52e+06 M⁻¹ s⁻¹ and 1.59e+06 M⁻¹ s⁻¹.
